Laboratory results reported in patent US7915395B2.

Target: human CD3-ε (human) (UniProt P07766)
UniProt P07766, sequence (P07766 23-207): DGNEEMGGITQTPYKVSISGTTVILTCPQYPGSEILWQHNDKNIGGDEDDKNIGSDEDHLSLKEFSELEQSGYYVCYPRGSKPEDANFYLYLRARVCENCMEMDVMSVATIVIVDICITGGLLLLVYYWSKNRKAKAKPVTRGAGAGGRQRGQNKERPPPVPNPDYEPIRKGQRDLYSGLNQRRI

Molecule: G19-4 Fab
- Proliferation (day 3, cpm × 10^-3), Purified T Cells + (2 µg/ml 9.3): 58.4 cpm × 10^-3

Molecule: native anti-CD3 Mab G19-4 (antibody)
- Proliferation (day 3, cpm × 10^-3), Purified T Cells + (0.5 ng/ml PMA): 83.6 cpm × 10^-3

B1: CD3 sFv (VL-VH, no tag) (scFv)
scFv: VDIQMTQTTSSLSASLGDRVTISCRASQDIRNYLNWYQQKPDGTVKLLIYYTSRLHSGVPSRFSGSGSGTDYSLTIANLQPEDIATYFCQQGNTLPWTFGGGTKLVTKRELGGGGSGGGGSGGGGSIDEVQLQQSGPELVKPGASMTMSCKASGYSFTGYIVNWLKQSHGKNLEWIGLINPWKGLTTYNQKFKGKATLTVDKSSSTAYMELLSLTSEDSAVYYCARSGYYGDSDWYFDVWGAGTTCTVSSFESDQSNSEEAKKEEAKKEEAKKSNSLESL
- Proliferation (day 3, cpm × 10^-3), Purified T Cells + (0.5 ng/ml PMA): 65 cpm × 10^-3
